Source: the supplement of paper PMC10126150
± gives the standard deviation of the averaged measurements.

Test system: ATP
Assay: switch fluorescence ratio, 500 uM ATP over buffer (Cy3 cluster intensity, sum of 5 cycles each) (fold (ratio)); higher = stronger signal-on switching upon ATP binding; sequences stand for … in TCGTCGGCAGCGTCAGATGTGTATAAGAGACAGTTTTTTTTTTTTTTTTTTTTTTTTT…TC
Details: aptamer strand: ATP DNA aptamer (quencher-CACCTGGGGGAGTATTGCGGAGGAAGG + anchor), 100 nM annealed; ATP concentration: 500 uM
Method in brief: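 The quencher-labelled ATP aptamer, at 100 nM, was annealed to Cy3-labelled switching-strand clusters on a modified Illumina MiSeq flow-cell. The clusters were imaged in selection buffer, then after 15 min with 500 uM ATP at 22 °C, and this buffer/ATP cycle ran five times with NaOH stripping and re-annealing between runs. Per-cluster fluorescence ratios, summed target-cycle over summed buffer-cycle Cy3 intensity, were averaged per switch-domain sequence. Clusters outside 100-1000 RFU were excluded.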
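Also: ATP exposure 15 min at 22 °C before imaging.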

Sequence | switch fluorescence ratio
TGTTGGTGC | 1.04 ± 0.013
ATTCAGAGTG | 0.965 ± 0.02
TGTTTCTCGC | 1.05 ± 0.037
TTGTTTGTAA | 1.04 ± 0.018
GTCGGGAAGT | 0.958 ± 0.024
TGTTTAAGAG | 1 ± 0.023
GTTAGGGCGG | 0.998 ± 0.042
GATTTAAGTG | 1.018 ± 0.0065
GGGACTATGA | 1 ± 0.021
GCCGGAGTTA | 1.06 ± 0.017
ACTTTCAGCC | 1.03 ± 0.017
GCTGGAGGTC | 1.01 ± 0.03
CCGGTTTTTT | 1.003 ± 0.0078
GTATTAGGCG | 1.02 ± 0.02
GTGATTGGCT | 0.978 ± 0.016
TTTTAAGGGA | 0.998 ± 0.014
GGGTGTTTCT | 1.01 ± 0.028
TGAGAAGGAA | 1.033 ± 0.0093
TTTCTGCGGC | 1.046 ± 0.0017
ACGGGCGGTC | 1.01 ± 0.015
AAACGCAGGG | 1.03 ± 0.029
CGGTTGCTAG | 0.997 ± 0.042
AATACTACAG | 1.08 ± 0.024
TGGGTGGGAC | 1.04 ± 0.036
TGGCTCGAGC | 1.01 ± 0.017

Sequence | switch fluorescence ratio
TTCACTTGTG | 1 ± 0.018
GGAAGGGTTG | 1 ± 0.034
TGGCTGCTGG | 0.949 ± 0.013
GGTTAAATTT | 0.987 ± 0.021
GGGTACGTCG | 0.996 ± 0.019
TGAGGTAGCG | 0.981 ± 0.034
TTCGGGTGCT | 1.08 ± 0.052
ATTCTGATGC | 1.05 ± 0.0092
GCTGTAGGCC | 1.02 ± 0.014
TATCGAGTCG | 0.997 ± 0.034
CAAGTTTTGT | 1.01 ± 0.012
TGCGATTTGT | 1.04 ± 0.043
GTAGTTTGAG | 0.996 ± 0.015
GTGAATTGGG | 1.03 ± 0.03
TTGAATGCCG | 1.04 ± 0.035
GGCCAAAGGG | 0.9965 ± 0.0036
CGGTCAGTAA | 1.03 ± 0.022
ATGGCACCGG | 1.018 ± 0.0069
ATCCGGGGTT | 1.06 ± 0.057
ACGAGGATGC | 1.09 ± 0.024
TAAACGGGGT | 1.03 ± 0.032
TATGTACTAT | 1.08 ± 0.029
TATTGTAACC | 1.03 ± 0.016
TTGCGGGCCG | 0.967 ± 0.068
CGGGTTAATG | 0.986 ± 0.019

Sequence | switch fluorescence ratio
TAAATGGA | 1.04 ± 0.039
ATATTTTATG | 1.03 ± 0.044
TTATGCGGTT | 0.992 ± 0.02
AAAGACCCTG | 0.988 ± 0.049
CGGGCACGTG | 0.946 ± 0.021
ATGATGTTGA | 1 ± 0.04
GATTAAACGG | 1.04 ± 0.04
TCGGGAAGGA | 1.01 ± 0.031
AGTAGGACGC | 1.02 ± 0.018
TAACAGTTAA | 1.03 ± 0.027
ATTTTCATTA | 0.996 ± 0.0096
TGGTAGGGTA | 1.03 ± 0.034
ATTTACGGTG | 1 ± 0.022
TATGAACTGC | 1.04 ± 0.041
TTGGTGTGTA | 1.002 ± 0.0089
TGGGTTTTGG | 0.997 ± 0.052
TGCAACGTAT | 1.13 ± 0.19
GTCTAAGGAA | 0.993 ± 0.016
CCCTAGGGTC | 1.01 ± 0.023
GGTAGCCTGC | 1.02 ± 0.023
CTTGAAAAGC | 1.05 ± 0.021
TTTTAATTCA | 1 ± 0.015
CAACGCGTTG | 1 ± 0.013
GCGAATAAGT | 1.02 ± 0.031
ATATGCCCT | 1.04 ± 0.03

Sequence | switch fluorescence ratio
GGTTGGTATG | 0.987 ± 0.027
CCGATTGTTG | 1.02 ± 0.038
AGCAAAAGGA | 1.16 ± 0.22
CGGAGGTTTC | 1.02 ± 0.03
GATTCATGGG | 1.01 ± 0.0043
TATTCTTTTT | 0.968 ± 0.04
GCTGAACTTC | 0.9804 ± 0.0089
GTGTGAGATT | 1.02 ± 0.024
TTATGGGGAA | 0.987 ± 0.015
CTGAGATCTC | 1.02 ± 0.011
TGGGTAAAGC | 1.03 ± 0.017
TTTGGTGTTG | 0.987 ± 0.022
AATATCTGTG | 1.01 ± 0.016
TAAAAGGGCG | 1.03 ± 0.012
CGGGTAAGTC | 0.995 ± 0.01
GTTATATTTG | 0.997 ± 0.031
GGAGGGGGTT | 1.01 ± 0.051
GCCTTAATCT | 1.01 ± 0.038
GGGGAAGGTA | 0.978 ± 0.019
ATGGAGGCGT | 0.994 ± 0.015
TTTGGGATGT | 1.02 ± 0.073
TGAGGCAGAG | 1.06 ± 0.015
TTCTAGGAAT | 1.02 ± 0.059
GGGTAATGCG | 1.06 ± 0.058
TTAACAGGGG | 1.33 ± 0.26
